Results published in doi:10.1101/2021.01.29.428744.

Molecular target: AlexaFluor594-tagged α-SYN pre-formed fibrils (PFFs) (human) (UniProt P37840)
Test: two-color coincidence detection

Substance: […]1 (from UniProt Q9H0R8 1-117) (natural protein)
- relative presence of GFP species in the aggregates: 0.14
